{"source": "paper PMC6677129", "biological_target": "repeat domain (RPT) of Pmel17 (human) (UniProt P40967)", "test": "co-sedimentation", "data": [{"substance": "repeat domain (RPT) of Pmel17 (from UniProt P40967 315-444) (domain or fragment)", "values": [{"measurement": "percent of RPT left in the supernatant, 0.1 mM LPG", "result": 54, "unit": "%"}, {"measurement": "percent of RPT left in the supernatant, 0.5 mM LPG", "result": 16, "unit": "%"}, {"measurement": "percent of protein in the supernatant, 0 mM LPG", "result": 108, "unit": "%"}, {"measurement": "percent of protein in the supernatant, 10 mM LPG", "result": 92, "unit": "%"}]}]}
